Numbering of substitutions follows the chain as printed.
B1: gGT25: glycosyltransferase protein with 475 amino acids, amino acid sequence SEQ ID NO.: 2, cloned from P. ginseng cDNA (protein)
chain: MKSELIFLPAPAIGHLVGMVEMAKLFISRHENLSVTVLIAKFYMDTGVDNYNKSLLTNPTPRLTIVNLPETDPQNYMLKPRHAIFPSVIETQKTHVRDIISGMTQSESTRVVGLLADLLFINIMDIANEFNVPTYVYSPAGAGHLGLAFHLQTLNDKKQDVTEFRNSDTELLVPSFANPVPAEVLPSMYVDKEGGYDYLFSLFRRCRESKAIIINTFEELEPYAINSLRMDSMIPPIYPVGPILNLNGDGQNSDEAAVILGWLDDQPPSSVVFLCFGSYGSFQENQVKEIAMGLERSGHRFLWSLRPSIPKGETKLQLKYSNLKEILPVGFLDRTSCVGKVIGWAPQVAVLGHESVGGFLSHCGWNSTLESVWCGVPVATWPMYGEQQLNAFEMVKELGIAVEIEVDYKKDYFNMKNDFIVRAEEIETKIKKLMMDENNSEIRKKVKEMKEKSRAAMSENGSSYNSLAKLFEEIM
modifications: Panax ginseng; gGT25
B2: gGT25-3: glycosyltransferase protein with 475 amino acids, SEQ ID NO.: 18 (protein)
chain: B1 chain with R110Q
modifications: Panax ginseng; gGT25-3
B3: gGT25-1: glycosyltransferase protein with 475 amino acids, SEQ ID NO.: 16 (protein)
chain: B1 chain with S281T, K324E, S355A, K410N, D411E, K416N, N438K, A455L
modifications: Panax ginseng; gGT25-1
B4: gGT29-7: glycosyltransferase protein with 446 amino acids, SEQ ID NO.: 61 (protein)
chain: MDNQKGRISIALLPFLAHGHISPFFELAKQLAKRNCNVFLCSTPINLSSIKNRVSDKDSSASIKLVELHLPSSPDLPPHYHTTNGLPSHLMIPLRNAFDTAGPTFSEILKTLNPDLLIYDFNPSWAPEIASSHNIPAVCFIIGGAASSSMSLHSFKNPGEKYPFLDFDDNSNITPEPPSADNMKLLINFMTCFERSCDIILIKSFRELEGKYFDFFSTLSDKTLVPVGPLVQDPMGHNEDPKTEQFINWLDKRAESTVVFVCFGSECFLSNEELEEVAIGLEISMVNFIWAVRLIEGEKKGVLPEGFVQRVGDRGLVVEEWAPQARILGHSSTGGFVSHCGWNSITESMKFGVPVIAMARHFDQPLNGKLAAEVGVGMEVVRDENGKYKREGIAEVIRKVVVEKSGEVIRRKARELSEKMKEKGEQEIDRVVEELVQICKKKKDEQ
modifications: Panax ginseng; gGT29-7
B5: gGT29-5: glycosyltransferase protein with 446 amino acids, SEQ ID NO.: 57 (protein)
chain: MDNQKGRISIVMLPFLAHGHISPFFELAKHLSKRNCNIFLCSTPINLSSIKNRISDKDSSASIKLVELHLPSSPDLPPHYHTTNGLPSHLMVPLRNAFETAAPTFSEILKTLNPDLLIYDFNPSWAPEIASSHNIPAVCFIIGGAASFSMSLHSFKNPGEKYPFLDFDDNSNITPEPPSADNMKLLLDFMTCFERSCDIILIKSFRELEGKYIDLLSTLSDKTLVPVGPLVQDPMGHNEDPKTEQIINWLDKRAESTVVFVCFGSEYFLSNEELEEVAIGLEISMVNFIWAVRLIEGEKKGVLPEGFVQRVGDRGLVVEGWAPQARILGHSSTGGFVSHCGWSSIAESMKFGVPVIAMARHLDQPLNGKLAAEVGVGMEVVRDENGKYKREGIAEVIRKVVVEKSGEVIRRKARELSEKMKEIGEQLIDRAVEELVQICKKKKDEQ
modifications: Panax ginseng; gGT29-5

Columns and labels:
Format in all cases: biochemical
[1] = Glycosyltransfering reaction with crude enzyme, substrate DM; details: crude enzyme: lysate supernatant of recombinant yeast; UDP-glucose, 35° C., 12 hrs; TLC
Experimental: (§1) The lysate supernatant of the recombinant yeasts expressing the empty vector was used as control.
(§2) The reaction was conducted under 35° C. for 12 hrs, then stopped by adding 100 μL of butanol. The product were extracted, dried in vacuum, and dissolved in methanol.
(§3) The reaction products were first detected by thin layer chromatography (TLC).
(§4) The glycosyltransfering reactions of ginsenosides and ginsengenins were catalyzed by using the lysis supernatant of the recombinant yeasts expressing 3GT1, 3GT2, 3GT3 and 3GT4 as crude enzymes. The lysis supernatant of recombinant E. coli expressing empty vectors was used as control. The 100 μL reaction system is shown as Table 3. The reaction was conducted under 35° C. for 12 hrs, then stopped by adding 100 μL of butanol. The product were extracted, dried in vacuum, and dissolved in methanol.

[2] = Glycosyltransfering reaction with crude enzyme, substrate Rg3; details: crude enzyme: lysate supernatant of recombinant yeast; UDP-glucose, 35° C., 12 hrs; TLC
Experimental: as §1, §2
(§5) The reaction products were first detected by thin layer chromatography (TLC). […]

[3] = Glycosyltransfering reaction with crude enzyme, substrate PPT; details: for glycosylation of C6-OH of PPT (product Rg1 or Rh1) / glycosylation of C20-OH of PPT (product F1): crude enzyme: lysate supernatant of recombinant yeast, UDP-glucose, 35° C., 12 hrs, TLC
Experimental: as §1, §2, §3
(§6) The converted products of gGT25 were further identified by HPLC (FIG. 10 and FIG. 11). The retention time of peak 2 was identical to that of the CK standard sample; the retention time of peak 3 was identical to that of PPD. […] Peak 1, also present in the profile of the negative control, indicated its irrelevance to the conversion of PPD. 3 peaks were shown in FIG. 11, the retention time of peak 1 was identical to that of F1 standard sample and peak 3 was identical to that of PPT. […] Peak 2, also present in the profile of the negative control, indicated its irrelevance to the conversion of PPT.
(§7) According to the method as in Example 4, the cell lysate of recombinant yeasts expressing gGT13 and gGT30 were used to catalyze PPD and PPT.
as §4

[4] = Glycosyltransfering reaction with crude enzyme, substrate Rh2; details: crude enzyme: lysate supernatant of recombinant yeast; UDP-glucose, 35° C., 12 hrs; TLC
Experimental: as §1, §2, §5
(§8) The lysate supernatant of the recombinant yeast expressing empty vectors was used as control. The reaction was conducted under 35° C. for 12 hrs, and then stopped by adding 100 μL of butanol. The product were extracted, dried in vacuum, and dissolved in methanol.
(§9) The glycosyltransfering reactions of ginsenosides Rh2 and F2 were catalyzed by using the lysate supernatant of the recombinant yeasts expressing 3GT1, 3GT2, 3GT3 and 3GT4 as crude enzymes. The 100 μL reaction system is shown as Table 3. The reaction was conducted under 35° C. for 12 hrs, and then stopped by adding 100 μL of butanol. The product were extracted, dried in vacuum, and dissolved in methanol.

[5] = Glycosyltransfering reaction with crude enzyme, substrate Rh1; details: crude enzyme: lysate supernatant of recombinant yeast; UDP-glucose, 35° C., 12 hrs; TLC
Experimental: as §1, §2, §5

[6] = Glycosyltransfering reaction with crude enzyme, substrate PPD; details: for glycosylation of C20-OH of PPD (product CK): crude enzyme: lysate supernatant of recombinant yeast, UDP-glucose
Experimental: as §1, §2, §3, §6, §7
The cell lysis supernatant of the recombinant E. coli was used as crude enzyme to conduct the glycosyltransfering reaction, and the reaction condition was identical to that of Example 4.
The reaction was conducted under 35° C. for 12 hrs. 100 μL of butanol was added to stop the reaction and the products were extracted. Upon vacuum drying, the product was dissolved by methanol. TLC was first used to detect the reaction product.
as §4
The reaction was conducted under 35° C. for 12 hrs, and then stopped by adding 100 μL of butanol. The product were extracted, dried in vacuum, and dissolved in methanol. The reaction products were first detected by thin layer chromatography (TLC) (FIG. 35).

[7] = Glycosyltransfering reaction with crude enzyme, substrate Rf; details: crude enzyme: lysate supernatant of recombinant yeast; UDP-glucose, 35° C., 12 hrs; TLC
Experimental: as §1, §2, §3

[8] = Glycosyltransfering reaction with crude enzyme, substrate Rg2; details: crude enzyme: lysate supernatant of recombinant yeast; UDP-glucose, 35° C., 12 hrs; TLC
Experimental: as §1, §2, §3

[9] = Glycosyltransfering activities on ginsengenins and saponins: glycosylation site and specificity (summary); details: for glycosylation site: C6 / glycosylation site: C20 / glycosylation site: The first glycosyl at C-3: Table 2, tetracyclic triterpenoid substrates; for extension of carbohydrate chain: crude enzyme: lysate supernatant of recombinant yeast, UDP-glucose, 35° C., 12 hrs, TLC
Experimental: More than 100 predicted cDNA sequences of glycosyltransferases were extracted from the published expression profile data of the Panax plant. 60 cDNAs with full length were cloned, expressed, and subjected to the analysis of glycosyltransfering reaction.
as §1, §2, §4, §8, §9

[10] = Glycosyltransfering reaction with crude enzyme, substrate F2; details: crude enzymes of Example 21 (E. coli expression products); 35° C., 12 hrs; TLC
Experimental: as §7, §8, §9

[11] = Glycosyltransfering reaction with crude enzyme, substrate Rh2; details: crude enzymes of Example 21 (E. coli expression products); 35° C., 12 hrs; TLC
[12] = crude enzyme from recombinant yeast, HPLC

Molecule | glycosylation of C20-OH of DM (product 20-O-β-(D-glucopyranosyl)-dammarendiol II) [1] | glycosylation of C20-OH of Rg3 (product Rd) [2] | transformation of PPT into F1 [3, 12] | glycosylation of C6-OH of PPT (product Rg1 or Rh1) [3] | glycosylation of C20-OH of PPT (product F1) [3] | glycosylation of C20-OH of Rh2 (product F2) [4] | glycosylation of C20-OH of Rh1 [5] | transformation of PPD into CK [6, 12] | transformation of PPD into CK ([6]; crude enzyme: cell lysis supernatant of recombinant E. coli, 35° C., 12 hrs, TLC) | glycosylation of C20-OH of PPD (product CK) ([6]; 35° C., 12 hrs, TLC) | glycosylation of C20-OH of Rf [7] | glycosylation of C20-OH of Rg2 [8] | glycosylation site: C6 [9] | glycosylation site: C20 [9] | extension of carbohydrate chain [9] | extension of C3 glycosyl of F2 by one more glycosyl (product Rd) [10] | extension of C3 glycosyl of Rh2 by one more glycosyl (product Rg3) [11] | glycosylation site: The first glycosyl at C-3 [9]
B1 | could also glycosylate C20-OH | further glycosylated at C20-OH | substantially transformed | C6-OH could be further glycosylated | glycosylated the C20-OH | further glycosylated at C20-OH | could not be catalyzed | substantially transformed | could transform PPD into CK | glycosylated the C20-OH | could not be catalyzed | could not be catalyzed | ✓ | ✓ | could not catalyze | – | – | –
B2 | could also glycosylate C20-OH | further glycosylated at C20-OH | – | C6-OH could be further glycosylated | glycosylated the C20-OH | further glycosylated at C20-OH | could not be catalyzed | – | – | glycosylated the C20-OH | could not be catalyzed | could not be catalyzed | ✓ | ✓ | could not catalyze | – | – | –
B3 | could also glycosylate C20-OH | further glycosylated at C20-OH | – | C6-OH could be further glycosylated | glycosylated the C20-OH | further glycosylated at C20-OH | could not be catalyzed | – | – | glycosylated the C20-OH | could not be catalyzed | could not be catalyzed | ✓ | ✓ | could not catalyze | – | – | –
B4 | – | – | – | – | – | – | – | – | – | – | – | – | – | – | – | could be extended by one more glycosyl | could not be catalyzed | ✓
B5 | – | – | – | – | – | – | – | – | – | – | – | – | – | – | – | could be extended by one more glycosyl | could not be catalyzed | ✓

Reference: patent US9976167B2, “Group of glycosyltransferases and use thereof” (Shanghai Institutes For Biological Sciences, Chinese …, priority 2012, dated 2018)
